Results taken from article doi:10.1101/2025.04.11.646618.

Assays:
RPS4-HF (Arabidopsis) = RPS4-HF (Arabidopsis) (UniProt Q9XGM3); assay: co-IP
YFP-RPS4 (Arabidopsis) = YFP-RPS4 (Arabidopsis) (UniProt Q9XGM3); assay: co-IP

Row | Substance | stoichiometry N (RPS4-HF (Arabidopsis)) | stoichiometry N (YFP-RPS4 (Arabidopsis))
1 | RRS1-R-GFP (receptor) | 1 | 
2 | RRS1-R-HF (receptor) |  | 1
